Reference: US20210253725A1 (BIONTECH, published 2021)

T1: CD27 expressed on the cell surface (HT1080_CD27 cells) (human, UniProt P26842 20-260)
T1 sequence (looked up): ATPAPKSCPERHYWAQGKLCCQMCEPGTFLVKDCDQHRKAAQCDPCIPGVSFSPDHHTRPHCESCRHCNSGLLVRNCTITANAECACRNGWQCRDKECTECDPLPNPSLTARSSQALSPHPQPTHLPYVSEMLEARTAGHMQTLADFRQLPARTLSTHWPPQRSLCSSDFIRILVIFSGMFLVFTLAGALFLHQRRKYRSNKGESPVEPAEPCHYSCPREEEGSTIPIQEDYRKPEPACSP

T2: CD27 protein (His-tagged, Sino Biological Inc. 10039-H08B1) (human, UniProt P26842 20-192)
T2 construct: bought; coated onto ELISA plates; also called human CD27; recombinant protein; not shown: His tag
T2 sequence (looked up): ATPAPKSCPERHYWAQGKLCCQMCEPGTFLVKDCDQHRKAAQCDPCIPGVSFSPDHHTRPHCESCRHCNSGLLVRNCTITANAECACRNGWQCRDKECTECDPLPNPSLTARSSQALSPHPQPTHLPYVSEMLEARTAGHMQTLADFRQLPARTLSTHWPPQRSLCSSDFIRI


Columns and labels:
[1] = biological target: T1, CD27 expressed on the cell surface …; assay: cell-based or functional assay
[2] = biological target: T2, CD27 protein (His-tagged, Sino …); assay: ELISA on coated His-tagged CD27
[3] = biological target: T1, CD27 expressed on the cell surface …; assay: cellular binding assay, HT1080_CD27 cells
Note: test concentration or dose not given here.

Row | IL-8, cross-linked by F(ab')2 fragment [abs. corr.] [1] | IL-8 [abs. corr.] [1] | ELISA [abs. corr.] [2] | Cellular binding assay [RFU] [3] | Binder
1 | 2.17 abs. corr. | 0.872 abs. corr. | 3.52 abs. corr. | 353 RFU | P018.S.09.A.E05 (antibody, V domains shown, V regions on human Ig constant parts; also called AB27_155) VH: QSLEESGGRLVTPGTPLTLTCTVSGIDLSRYDMSWVRQAPGKGLEWIGFIGASGSTYYASWVKGRFTISKTSTTVDLKITSPTTEDTATYFCAREETDSRGYYYSLWGPGTPVTVSS VL: ALVMTQTPASVEAAVGGTVTINCQASQSISDLLGWYQQKPGQPPKLLIYDASDLASGVPSRFSGSGSGTEFTLTISGVQSDDAATYYCQQGYSINNVDNAFGGGTEVVVK
2 | 1.56 abs. corr. | 0.079 abs. corr. | 3.21 abs. corr. | 360 RFU | P018.S.10.A.C03 (antibody, V domains shown, V regions on human Ig constant parts; also called AB27_172) VH: QSVEESGGRLVTPGTPLTLTCTVSGFSLSSYYMIWVRQAPGKGLEWIGIINTSGGAYYATWANGRFTISRTSTTVDLKITSPTTEDTATYFCARYLDNGFYCPDLWGQGTLVIVSS VL: DIVMTQTPSSVSEAVGGTVTIKCQASEDIYTLLAWYQQKPGQPPKLLIYKASILASGVSSRFKGGGSGADFTLTISDLESADAATYYCQSTYYGAAYIGAFGGGTEVVVK

More lines, now with the values behind:

Row | Binder | IL-8, cross-linked by F(ab')2 fragment [abs. corr.] [1] | IL-8 [abs. corr.] [1] | ELISA [abs. corr.] [2] | Cellular binding assay [RFU] [3]
3 | P018.S.08.A.A03 (antibody, V domains shown, V regions on human Ig constant parts; also called AB27_136) VH: QSLEESGGRLVTPGTPLTLTCTASGFSLSSYGMIWVRQAPGKGLEWIGMIIDVTYTYYASWAKGRFTISKTSTTVDLKMTSLTTEDTATYFCARTPGYGIYAYGNLWGQGTLVTVSS VL: AQVLTQTPSPVSAAVGGTVTISCQSSQSVYGNNWLAWYQQKPGQPPKLLIYYASTLASGVPSRFKGSGSGTQFTLTISEVQSDDAATYYCQGYYSSAAYVFGGGTEVVVK | 1.64 abs. corr. | 0.276 abs. corr. | 3.21 abs. corr. | 342 RFU
4 | P018.S.01.A.C05 (antibody, V domains shown, V regions on human Ig constant parts; also called AB27_9) VH: QSLEESGGGLVQPEGSLTLTCTASGFSFSSRYYMCWVRQAPGKGLELIACIDTSSGSTWYASWAKGRFTVSKTSSTTVTLQMTSLTAADTATYFCARDLYHENSDGDWWGPGTLVTVSS VL: AFELTQTPSSVEAAVGGTVTIKCQASESINNYLAWYQQKPGQPPKLLIYKASTLASGVSSRFKGSGSGTDFTLTISGVQSDDAATYYCQSYYGASGSGSNVFGGGTEVVVK | 1.4 abs. corr. | 0.327 abs. corr. | 3.19 abs. corr. | 349 RFU
5 | P018.S.07.A.E05 (antibody, V domains shown, V regions on human Ig constant parts; also called AB27_126) VH: QSLEESGGRLVTPGGSLTLTCTVSGIDLSSYAMIWVRQAPGKGLEWIGYIYGGSGSTWYASWAKGRFTISKTSSTTVDLKMTSLTTEDTATYFCARAYDSGYIGNSFYIFDPWGPGTLVTVSS VL: DIVMTQTPASVSATVGGTVTIKCQASQSISSRLAWYQQKPGQPPKLLIYSASTLASGVSSRFRGSGSGTEFTLTISDLESADGATYYCAGYGGLGITAFGGGTEVVVK | 1.15 abs. corr. | 0.055 abs. corr. | 3.2 abs. corr. | 317 RFU
6 | P018.S.03.A.G03 (antibody, V domains shown, V regions on human Ig constant parts; also called AB27_57) VH: QEHLEESGGGLVQPEGSLTLTCKASGFDFSSNYYMSWVRQAPGTGLEWIACIDSGSSGSTWYASWVKGRFTISKTSSTTVTLQMTSLTDADTAAYFCVRDDVGSSYEYYFSLWGPGTLVTVSS VL: DVVMTQTPASVSEPVGGTVTIKCQASQSIGSFLGWYQQKPGQPPKLLIYQASKLASGVPSRFKGSGSGTEYTLTISDLESADAAAYYCQTYFGSDSYVFGGGTEVVVK | 1.58 abs. corr. | 0.546 abs. corr. | 3.21 abs. corr. | 292 RFU
7 | P018.S.03.A.D06 (antibody, V domains shown, V regions on human Ig constant parts; also called AB27_51) VH: QSLEESGGRLVTPGTPLTLTCTASGFSLSSYWMSWVRQAPGKGLEWIGYIYAGSGSAYYASWVKGRFTISKTSTTVDLKISSPTTEDTATYFCGRGNYDGYINVYDLWGPGTLVTVSS VL: DVVMTQTPSSVEAAVGGTVTIKCQASQSIGSYLAWYQKKPGQPPKLLIYAAANLAAGVPSRFKGSGSGTDFTLTINDLESADAATYYCQNNNGAYGSAYVGAFGGGTEVVVK | 1.05 abs. corr. | 0.245 abs. corr. | 3.19 abs. corr. | 360 RFU
